Reference: the supplement of paper PMC10567573

B1: PTPRD (parent)
chain: LTKLREMGREKCHQYWPAERSARY

Variants of: B1
Experiment: protein stability index of a GFP-peptide fusion (GPS, HEK-293T) (PSI 1-6); higher = more stable
Settings: c terminus: a fixed tail appended
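Note: lentivirally expressed fusions sorted by FACS into six bins by GFP to DsRed ratio, PSI derived from sequencing read proportions per bin multiplied by bin number.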

Point of comparison: LTKLREMGREKCHQYWPAERDARY [S21D], protein stability index 2.83. Against it:
- LTKLREMGREKCHQYWPAERSDRY [A22D] — lower, 2.4
- LTKLREMGREKCHQYWPAERSCRY [A22C] — lower, 2.15
- LTKLREMGREKCHQYWPAERSERY [A22E] — lower, 2.53
- LTKLREMGREKCHQYWPGERSARY [A18G] — lower, 2.06
- LTKLREMGREKCHQYWPPERSARY [A18P] — lower, 2.39
- LTKLREMGREKCHQYWPMERSARY [A18M] — lower, 1.97
- LTKLREMGREKCHQYWPSERSARY [A18S] — lower, 2.17
- LTKLREMGREKCHQYWPCERSARY [A18C] — lower, 2.31
- LTKLREMGREKCHQYWPWERSARY [A18W] — lower, 2.16
- LTKLREMGREKCHQYWPRERSARY [A18R] — lower, 2.13
- LTKLREMGREKCHQYWPVERSARY [A18V] — lower, 2.26
- LTKLREMGREKCHQYWPFERSARY [A18F] — lower, 2.21
- LTKLREMGREKCHQYWPTERSARY [A18T] — lower, 2.27
- LTKLREMGREKCHQYWPIERSARY [A18I] — lower, 2.21
- LTKLREMGREKCHQYWPKERSARY [A18K] — lower, 2.48
- LTKLREMGREKCHQYWPNERSARY [A18N] — lower, 2.16
- LTKLREMGREKCHQYWPQERSARY [A18Q] — lower, 2.53
- LTKLREMGREKCHQYWPLERSARY [A18L] — lower, 1.87
- LTKLREMGREKCHQYWPHERSARY [A18H] — lower, 2.19
- LTKLREMGREKCHQYWPEERSARY [A18E] — lower, 2.73
- LTKLREMGREKCHQYWPYERSARY [A18Y] — lower, 1.97
- LTKLREMGREKCHQYWPDERSARY [A18D] — lower, 2.49
- LTKLREMGREKCHQWWPAERSARY [Y15W] — lower, 1.99
- LTKLREMGREKCHQQWPAERSARY [Y15Q] — lower, 2.79
- LTKLREMGREKCHQHWPAERSARY [Y15H] — higher, 3.41
- LTKLREMGREKCHQIWPAERSARY [Y15I] — lower, 2.59
- LTKLREMGREKCHQMWPAERSARY [Y15M] — lower, 2.53
- LTKLREMGREKCHQNWPAERSARY [Y15N] — higher, 3.19
- LTKLREMGREKCHQDWPAERSARY [Y15D] — higher, 3.31
- LTKLREMGREKCHQSWPAERSARY [Y15S] — higher, 2.92
- LTKLREMGREKCHQPWPAERSARY [Y15P] — lower, 2.64
- LTKLREMGREKCHQTWPAERSARY [Y15T] — lower, 2.82
- LTKLREMGREKCHQFWPAERSARY [Y15F] — higher, 2.86
- LTKLREMGREKCHQAWPAERSARY [Y15A] — higher, 2.93
- LTKLREMGREKCHQCWPAERSARY [Y15C] — lower, 2.6
- LTKLREMGREKCHQEWPAERSARY [Y15E] — higher, 3.54
- LTKLREMGREKCHQKWPAERSARY [Y15K] — higher, 3.1
- LTKLREMGREKCHQLWPAERSARY [Y15L] — lower, 2.46
- LTKLREMGREKCHQGWPAERSARY [Y15G] — higher, 3.46
- LTKLREMGREKCHQRWPAERSARY [Y15R] — lower, 2.82
- LTKLREMGREKCHQYWPAERLARY [S21L] — lower, 1.96
- LTKLREMGREKCHQYWPAERQARY [S21Q] — lower, 2.08
- LTKLREMGREKCHQYWPAERAARY [S21A] — lower, 2.58
- LTKLREMGREKCHQYWPAERNARY [S21N] — lower, 2.17
- LTKLREMGREKCHQYWPAERPARY [S21P] — lower, 2.24
- LTKLREMGREKCHQYWPAERKARY [S21K] — lower, 2.72
- LTKLREMGREKCHQYWPAERTARY [S21T] — lower, 2.77
- LTKLREMGREKCHQYWPAEREARY [S21E] — lower, 2.15
- LTKLREMGREKCHQYWPAERVARY [S21V] — lower, 2.17
- LTKLREMGREKCHQYWPAERFARY [S21F] — lower, 2
- LTKLREMGREKCHQYWPAERWARY [S21W] — lower, 1.94
- LTKLREMGREKCHQYWPAERHARY [S21H] — lower, 1.91
- LTKLREMGREKCHQYWPAERYARY [S21Y] — lower, 2.61
- LTKLREMGREKCHQYWPAERIARY [S21I] — higher, 2.99
- LTKLREMGREKCHQYWPAERGARY [S21G] — lower, 1.91
- LTKLREMGREKCHQYWPAERMARY [S21M] — lower, 1.96
- LTKLREMGREKCHQYWPAERRARY [S21R] — lower, 2.16
- LTKLREMGREKCHQYWPAERCARY [S21C] — lower, 1.7
- LTKLREMGREKCLQYWPAERSARY [H13L] — lower, 2.77
- LTKLREMGREKCDQYWPAERSARY [H13D] — higher, 3.17
- LTKLREMGREKCSQYWPAERSARY [H13S] — lower, 2.28
- LTKLREMGREKCNQYWPAERSARY [H13N] — lower, 2.79
- LTKLREMGREKCMQYWPAERSARY [H13M] — lower, 1.97
- LTKLREMGREKCKQYWPAERSARY [H13K] — lower, 2.53
- LTKLREMGREKCGQYWPAERSARY [H13G] — lower, 2.66
- LTKLREMGREKCTQYWPAERSARY [H13T] — lower, 2.65
- LTKLREMGREKCIQYWPAERSARY [H13I] — lower, 2.33
- LTKLREMGREKCYQYWPAERSARY [H13Y] — lower, 2.38
- LTKLREMGREKCVQYWPAERSARY [H13V] — lower, 2.02
- LTKLREMGREKCWQYWPAERSARY [H13W] — lower, 1.77
- LTKLREMGREKCCQYWPAERSARY [H13C] — lower, 1.86
- LTKLREMGREKCRQYWPAERSARY [H13R] — lower, 2.31
- LTKLREMGREKCEQYWPAERSARY [H13E] — lower, 2.74
- LTKLREMGREKCQQYWPAERSARY [H13Q] — the same, 2.83
- LTKLREMGREKCAQYWPAERSARY [H13A] — lower, 2.66
- LTKLREMGREKCPQYWPAERSARY [H13P] — lower, 2.43
- LTKLREMGREKCFQYWPAERSARY [H13F] — lower, 2.15
- LTKLREMGREKHHQYWPAERSARY [C12H] — the same, 2.83
- LTKLREMGREKQHQYWPAERSARY [C12Q] — the same, 2.83
- LTKLREMGREKVHQYWPAERSARY [C12V] — lower, 2.35
- LTKLREMGREKNHQYWPAERSARY [C12N] — higher, 3.04
- LTKLREMGREKPHQYWPAERSARY [C12P] — higher, 3.09
- LTKLREMGREKMHQYWPAERSARY [C12M] — lower, 2.1
- LTKLREMGREKGHQYWPAERSARY [C12G] — higher, 2.98
- LTKLREMGREKYHQYWPAERSARY [C12Y] — higher, 2.98
- LTKLREMGREKIHQYWPAERSARY [C12I] — lower, 2.35
- LTKLREMGREKLHQYWPAERSARY [C12L] — lower, 2.39
- LTKLREMGREKTHQYWPAERSARY [C12T] — higher, 3.38
- LTKLREMGREKKHQYWPAERSARY [C12K] — lower, 2.27
- LTKLREMGREKRHQYWPAERSARY [C12R] — lower, 2.51
- LTKLREMGREKWHQYWPAERSARY [C12W] — lower, 2.25
- LTKLREMGREKSHQYWPAERSARY [C12S] — lower, 2.66
- LTKLREMGREKCHIYWPAERSARY [Q14I] — lower, 2.27
